The target in assay [1] is T1, mCherry-Vimentin (untagged) (UniProt P08670 1-466).
T1 construct: Control without the BC2 tag; not shown: mCherry fluorescent protein
Nature of the assay: immunoprecipitation from HEK293T lysate with the BC2 nanotrap, immunoblot with anti-vimentin. How it is done:
HEK293T cells transiently expressing eGFP, eGFPBC2T or BC2TeGFP, eGFP-PCNA, eGFP-PCNABC2T, mCherry-Vimentin, mCherry-VimentinBC2T were washed and harvested in phosphate buffered saline (PBS), snap-frozen in liquid nitrogen and stored at −20° C. Cell pellets were homogenized in 200 μl lysis buffer (10 mM Tris/Cl pH 7.5, 150 mM NaCl, 0.5% NP40, 1 μg DNaseI, 2 mM MgCl₂, 2 mM PMSF, 1× protease inhibitor mix M (Serva) by repeated pipetting for 40 min on ice. After a centrifugation step (10 min at 18.000×g) the protein concentration of each lysate was determined using a Pierce BCA Protein Assay Kit (Thermo Fisher Scientific) according to manufacturer's protocol and the protein solutions were adjusted with dilution buffer (10 mM Tris/Cl pH 7.5, 150 mM NaCl, 2 mM PMSF) to a concentration of 1 mg/ml. 2% of the supernatant were added to SDS-containing sample buffer (referred to as input). […] After a centrifugation step (2 min, 2500×g) the precleared supernatant was transferred to a new cup. 2% were added to SDS-containing sample buffer (referred to as non-bound). […] Samples were analyzed by SDS-PAGE followed by immunoblotting. Immunoblots were probed with indicated antibodies.

For assay [2], the target named is T2, BC2T Q11N library peptide (human).
T2 peptide: Ac-PDRKAAVSHWNQ-NH2
Nature of the assay: peptide library pulldown on immobilized Nb, LC-MS of supernatant; ratio vs GFP-Nb control (1 = not captured, 0 = captured). An excerpt:
(§1) In total, 12 different BC2T libraries displaying all 20 proteinogenic amino acids in one single position of the peptide were used in immunoprecipitation experiments. […] The direct comparison with the GFP-Nb made it possible to determine the quantitative degree of peptide capture without the need of labeled standards. […] The more peptide was captured the more the value approximates 0. It was not possible to discriminate between isoleucine (I) and leucine (L) peptide versions since these peptides are isobaric.
(§2) To investigate the binding specificity of the BC2T and derived mutants peptide libraries for each amino acid position of the sequence […] (SEQ ID NO:4) were synthesized with acetyl and amide groups located at the N-termini or C-termini respectively (Intavis). […] Incubations were performed in 300 μl PBS/0.01% CHAPS for 1 h on a HulaMixer (Life Technologies). Subsequent to a centrifugation step 10 μl supernatant were analyzed in a LC-MS procedure. Peptides were separated using an UltiMate3000 RSLCnano System (Thermo Scientific), composed of a C18 PepMap100μ-Precolumn (300 μm×5 mm; particle size: 5 μm; pore size: 100 Å—Thermo Scientific) and a C18 analytical column (Acclaim Rapid Separation LC (RSLC) Column: 150 mm×5 mm; particle size: 2.2 μm; pore size: 100 Å—Thermo Scientific). A step gradient was applied starting at 8% and ending after 20 min at 30% eluent B (80% acetonitrile, 20% H₂O, 0.1% formic acid).

The target in assay [3] is T3, BC2T Q11Y library peptide (human).
T3 peptide: Ac-PDRKAAVSHWYQ-NH2
The assay is described as above.
Excerpt: as §1, §2

A further assay concerns the target T4, BC2T H9N library peptide (human).
T4 peptide: Ac-PDRKAAVSNWQQ-NH2
Described as above.
Excerpt: as §1, §2

A further assay concerns the target T5, BC2T S8G library peptide (human).
T5 construct: also called BC2TS8X: G
T5 peptide: Ac-PDRKAAVGHWQQ-NH2
The assay is described as above.
Excerpt: as §1, §2

Assay [4] concerns the target T6, BC2T Q11E library peptide (human).
T6 peptide: Ac-PDRKAAVSHWEQ-NH2
The description is as above.
Excerpt: as §1, §2

The target of a further assay is T7, BC2T S8H library peptide (human).
T7 construct: also called BC2TS8X: H
T7 peptide: Ac-PDRKAAVHHWQQ-NH2
Described as above.
Excerpt: as §1, §2

Assay [5] deals with T8, BC2T Q11G library peptide (human).
T8 peptide: Ac-PDRKAAVSHWGQ-NH2
Described as above.
Excerpt: as §1, §2

Assay [6] deals with T9, BC2T Q11D library peptide (human).
T9 peptide: Ac-PDRKAAVSHWDQ-NH2
The assay is described as above.
Excerpt: as §1, §2

A further assay deals with T10, BC2T H9G library peptide (human).
T10 peptide: Ac-PDRKAAVSGWQQ-NH2
The description is as above.
Excerpt: as §1, §2

Assay [7] has as its target T11, BC2T W10K library peptide (human).
T11 construct: also called BC2TW10X: K
T11 peptide: Ac-PDRKAAVSHKQQ-NH2
Described as above.
Excerpt: as §1, §2

Assay [8] addresses T12, BC2T H9(I/L) library peptide, version 2 (N-terminal acetyl, C-terminal amide).
T12 construct: Ile and Leu versions are isobaric; two versions resolved but not assigned; also called I/L2
Described as above.
Excerpt: as §1, §2

Assay [9] deals with T13, BC2T Q11K library peptide (human).
T13 peptide: Ac-PDRKAAVSHWKQ-NH2
The description is as above.
Excerpt: as §1, §2

The target in assay [10] is T14, BC2T Q12(I/L) library peptide, version 1 (N-terminal acetyl, C-terminal amide).
T14 construct: Ile and Leu versions are isobaric; two versions resolved but not assigned; also called I/L1
Described as above.
Excerpt: as §1, §2

Another assay deals with T15, BC2T H9R library peptide (human).
T15 peptide: Ac-PDRKAAVSRWQQ-NH2
Described as above.
Excerpt: as §1, §2

The target of assay [11] is T16, BC2T Q12M library peptide (human).
T16 peptide: Ac-PDRKAAVSHWQM-NH2
The description is as above.
Excerpt: as §1, §2

T1 sequence (P08670 whole entry): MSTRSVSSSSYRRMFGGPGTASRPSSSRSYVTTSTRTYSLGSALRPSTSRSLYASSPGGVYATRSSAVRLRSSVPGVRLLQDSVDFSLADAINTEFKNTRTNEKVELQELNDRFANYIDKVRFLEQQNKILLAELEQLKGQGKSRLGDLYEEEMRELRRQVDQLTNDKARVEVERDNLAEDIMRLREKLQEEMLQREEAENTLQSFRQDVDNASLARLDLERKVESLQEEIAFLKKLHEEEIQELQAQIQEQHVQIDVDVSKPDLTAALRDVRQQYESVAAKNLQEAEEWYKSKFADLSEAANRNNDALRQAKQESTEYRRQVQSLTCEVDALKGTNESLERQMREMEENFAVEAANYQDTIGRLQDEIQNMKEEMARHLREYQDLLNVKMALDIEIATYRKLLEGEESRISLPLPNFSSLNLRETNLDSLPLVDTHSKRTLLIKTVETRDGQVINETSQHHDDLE

B1: BC2 nanobody (VHH)
VHH: QVQLVESGGGLVQPGGSLTLSCTASGFTLDHYDIGWFRQAPGKEREGVSCINNSDDDTYYADSVKGRFTIFMDNAKDTVYLQMNSLKPEDTAIYYCAEARGCKRGRYEYDFWGQGTQVTVSS
notes: Alpaca VHH, 122 aa; also called BC2-Nb; BC2 nanotrap (BC2-Nb immobilized on agarose/Sepharose beads); not shown: C-terminal 6xHis-tag added by the pHEN6 vector
For B1, the binding result in [1] is “no binding”.

B2: BC2-Nb(R106E) (VHH)
VHH: QVQLVESGGGLVQPGGSLTLSCTASGFTLDHYDIGWFRQAPGKEREGVSCINNSDDDTYYADSVKGRFTIFMDNAKDTVYLQMNSLKPEDTAIYYCAEARGCKRGEYEYDFWGQGTQVTVSS
notes: Headlock mutant; immobilized on beads in the library pulldown
In the case of B2, the ratio in assay [2] stood at 0.2; in assay [3] it was 0.1; in the assay with BC2T H9N library peptide it was 0.2; with BC2T S8G library peptide it was 0.8; in assay [4], 0.4; in the assay with BC2T S8H library peptide, 0.9. For the same molecule, the ratio in assay [5] stood at 0.4; in assay [6] it was 0.5; with BC2T H9G library peptide, 0.7; in assay [7], 1.3; in assay [8], 0.2; in [9] it was 0.1. For the same molecule, the ratio turned out to be 0.1 in assay [10], 0.1 with BC2T H9R library peptide and 0.2 in assay [11].
